Laboratory results published in US20190085092A1.

Target: STn expressing TAG-72 glycoprotein (human tumor-associated glycoprotein 72) (human) (UniProt Q01973)
Assay: flow cytometry on LS174T cells, 5 µg 3E8, detected with mouse anti-human IgG-PE

Chain of UniProt Q01973 (Q01973 30-937 limits assumed): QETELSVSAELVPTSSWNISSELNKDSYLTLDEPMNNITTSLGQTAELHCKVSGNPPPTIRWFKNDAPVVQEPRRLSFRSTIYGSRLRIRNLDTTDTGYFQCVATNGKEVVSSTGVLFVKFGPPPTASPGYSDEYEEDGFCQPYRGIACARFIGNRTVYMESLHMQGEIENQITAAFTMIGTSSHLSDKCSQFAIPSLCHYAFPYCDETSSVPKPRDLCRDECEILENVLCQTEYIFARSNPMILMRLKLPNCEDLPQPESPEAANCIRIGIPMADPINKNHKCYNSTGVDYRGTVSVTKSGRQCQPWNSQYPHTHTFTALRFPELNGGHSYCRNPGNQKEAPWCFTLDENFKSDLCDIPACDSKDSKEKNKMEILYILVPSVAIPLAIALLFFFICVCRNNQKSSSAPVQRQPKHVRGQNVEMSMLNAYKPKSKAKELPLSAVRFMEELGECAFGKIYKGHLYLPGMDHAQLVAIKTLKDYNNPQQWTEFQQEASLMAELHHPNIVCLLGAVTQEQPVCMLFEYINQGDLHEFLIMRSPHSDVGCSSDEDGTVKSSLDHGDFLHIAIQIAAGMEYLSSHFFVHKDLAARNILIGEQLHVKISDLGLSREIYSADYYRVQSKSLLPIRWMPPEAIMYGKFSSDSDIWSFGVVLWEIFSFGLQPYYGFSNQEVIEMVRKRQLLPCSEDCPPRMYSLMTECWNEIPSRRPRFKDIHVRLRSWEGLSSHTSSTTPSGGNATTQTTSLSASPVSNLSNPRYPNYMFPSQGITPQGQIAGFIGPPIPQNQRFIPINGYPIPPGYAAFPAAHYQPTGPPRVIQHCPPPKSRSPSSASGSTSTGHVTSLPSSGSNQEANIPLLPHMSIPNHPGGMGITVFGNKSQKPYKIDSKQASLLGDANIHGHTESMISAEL

percent of cells stained: 98%
Substance: STn specific antibody (3E8)
